# Assay results: the supplement of paper PMC9170038
# System: MS2 coat protein
# Assay: apparent KD of MS2 coat protein; designed switch direction (-1 OFF switch, 1 ON switch): -1; higher = weaker reporter binding
# How it was run: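 On Illumina chips, designed RNA switches with common flanks were made by stalled E. coli RNA polymerase. Titrations with SNAP-549-labelled MS2 coat protein, doubling from 0.7 or 1.5 nM to 3 µM, were done with no input, with 200 uM small-molecule ligand, or with an oligonucleotide input. Apparent KD is the median per design over clusters, from curve fits of normalised cluster fluorescence.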
# [1] = Eterna round: R95, input ligand: microRNA oligo, concentration not stated
# [2] = input ligand: microRNA oligo, concentration not stated
# [3] = Eterna round: R95, input ligand: FMN 200 uM
# [4] = Eterna round: R95, input ligand: none
Sequence,apparent KD of MS2 coat protein (input ligand: FMN 200 uM),apparent KD of MS2 coat protein (input ligand: none),apparent KD of MS2 coat protein [1],other results
"GAUCAGUAAGGAUAUACAUGAGGAUCACCCAUGUGGAUGGCCGCGCAUUUCCAUUCAGGUAGAAGGUACUGAGU [Eternabot (L1) Solution 94] (Eterna round: R97, puzzle: Exclusion 3)",54.3 nM,36.8 nM,–,–
UUGUACAUAGGAUAUAGUUGUUUGUACAUGAGGAUCACCCAUGUUAUGUAUGUUUUGUUUCUAGAAGGAUGUUGAU [JR_E5_Sub003] (puzzle: Exclusion 5),–,–,47.1 nM,–
"GGAUAAAACUGAGGAUAUACGCACCACUAACGAGUAGAAGGCAGACAUGAGGAUCACCCAUGUGAGUUCUCAAUAAGAAACACG [Prohibition 66 - Jieux - Exclusion NG 1] (Eterna round: R96, puzzle: Exclusion NG 1)",192 nM,85.1 nM,–,apparent KD of MS2 coat protein [2]: 88.9 nM
GUAUAUAGUGUGAGGAUAUGCUGGUCCUUGGAUCAGCAGAAGGCACAUGAGGAUCACCCAUGUAGUUUAUUUUA [Mat - Exclusion 4 - JL Mod - D3] (puzzle: Brourd's mod of Exclusion 4),–,–,25.8 nM,–
"AGCCACAGAGGAUAUACAUACAUCCAGUAGUAGAGAAUACUACAUGAGGAUCACCCAUGUAGAAGGCUGUGGCA [Omei Ex2 BD B14] (Eterna round: R97, puzzle: Exclusion 2)",316 nM,438 nM,–,–
"AGUUGGGCAGGAUAUACAUGAGGAUCACCCAUGUGAGAAAUACUAGUGAGGUCGAUUAGUAGAAGGGCCUGACA [Mat - Exclusion 3 - Eli Mod - D30] (Eterna round: R97, puzzle: Exclusion 3)",244 nM,31.2 nM,–,–
"GGACGGUAAGUGAGGAUAUGCUCUACCUCGGUAGAGCAGAAGGCACAUGAGGAUCACCCAUGUGAAAACUGUUC [Omei Ex4B B31] (Eterna round: R97, puzzle: Brourd's mod of Exclusion 4)",21.5 nM,15 nM,–,–
"AGUGUGAGGCAGGAUAUGCUAUAUGUACGUAAUGCAGAAGGGUCUACAUGAGGAUCACCCAUGUGUGCGGUUGA [Ex6 #8] (Eterna round: R97, puzzle: Exclusion 6)",309 nM,289 nM,–,–
AAUAAUGGAGGAUAUACAUGAGGAUCACCCAUGUGAAUAAAAUAAAUAAAAUGAUAAAGUAGAAGGCCAAAUAA [JMF's solution 2] (puzzle: Exclusion 3),–,–,39.9 nM,apparent KD of MS2 coat protein [3]: 42.7 nM; apparent KD of MS2 coat protein [4]: 53.6 nM
"UUUUACUCAGGAUAUACAUGAGGAUCACCCAUGUAUAUUGAAGAUAAUACAUGGGAAUGUAGAAGGGAGCUCAU [Omei Ex3 Pseudoloop 18] (Eterna round: R97, puzzle: Exclusion 3)",190 nM,179 nM,–,–
"CCCAGUUAGUGAGGAUAUCUUACAUGAGGAUCACCCAUGUAAUAAAUGAGGAUUUCGGGUGUCUAAGAGAAGGCACGGAUAGGC [Ostracism 25 - Jieux - Exclusion NG 2] (Eterna round: R96, puzzle: Exclusion NG 2)",27.1 nM,27 nM,–,apparent KD of MS2 coat protein [2]: 16.7 nM
"AAAUAAUAGAUAAAAUAAAACAUGAGGAUCACCCAUGUAGGCAGAUGAGGGUGAAACAAGCUUUUUGCUCGUCUUAU (puzzle: Sensor v3, turn-off variant 1)",–,–,477 nM,apparent KD of MS2 coat protein [3]: 63.9 nM; apparent KD of MS2 coat protein [4]: 75.1 nM
"UAAUGUAUAUAGGAUAUCUAGCUGGAAACAGCUAGAGAAGGAUGUACAUGAGGAUCACCCAUGUAAAUCAGUGA [Ex6/14-B1] (Eterna round: R97, puzzle: Exclusion 6)",239 nM,55.4 nM,–,–
"GUACUGAAGCUUUGCUUUAGUCGUACAUGAGGAUCACCCAUGUAGGAUAUGGUAGGCAUAGCUUACUAGAAGGAUAGAGUGAUC [Mat - Exclusion NG 3 - Mod of JL - D64] (Eterna round: R96, puzzle: Exclusion NG 3)",112 nM,81.3 nM,–,apparent KD of MS2 coat protein [2]: 86 nM
"UGUUGUUACGCAGGAUAUGCAUGAGGAUCACCCAUGCAACCACAUUUAACAUGAGGAUCACCCAUGUAGAAGGGCGGGUUAACA [pwkr exNG2 2xF5 1xFMN.1] (Eterna round: R96, puzzle: Exclusion NG 2)",77.5 nM,28 nM,–,apparent KD of MS2 coat protein [2]: 20.4 nM
"UCUUGUUGUCCGUGAGAAGACAUGAGGAUCACCCAUGUUAGUUUGAUUAUGAUGUGUAAGUUUGUUGCUCGUUUUAU [JR_STOV1_v2_Sub071] (Eterna round: R97, puzzle: Sensor, turn-off variant 1)",50.2 nM,56.5 nM,–,–
AUUGAUGUUGAGGAUAUGCUUUUAUUUAUUCUUGCAGAAGGCGAUACAUGAGGAUCACCCAUGUUCAUGGAAGU [JR_E6_Sub091] (puzzle: Exclusion 6),–,–,30.7 nM,–

Sequence,apparent KD of MS2 coat protein (input ligand: FMN 200 uM),apparent KD of MS2 coat protein (input ligand: none),apparent KD of MS2 coat protein [1],other results
GAGUGACAUGAGGAUCACCCAUGUGAGGAUAUCGGACGGACCUAGUUAACUUCCGCCGCGAGAAGGCACAUCGG [Exclusion 1 V23] (puzzle: Exclusion 1),–,–,70.2 nM,–
"UAAACAAGCUUAAGAUCCUACAUGAGGAUCACCCAUGUGCUCGUCUUGUAACGUACUGUGACGAAAGUCACGGUACG [JL TOV1 3.09] (Eterna round: R97, puzzle: Sensor, turn-off variant 1)",185 nM,228 nM,–,–
"AAUUCACAAGCGAGAUCCCACAUGAGGAUCACCCAUGUGCUCGUCUUAUAAGGUACUGUGACGAGAGUCACGGUACC [Mat - Sensor, turn-off var - Eli Mod - D88] (Eterna round: R97, puzzle: Sensor, turn-off variant 1)",15.7 nM,16 nM,–,–
GUGAGGUAAGGAUAUAGGAGAAAAGAUAAGGUAUGAGAGUUCUAGAAGGUACAUGAGGAUCACCCAUGUUAGGG [JR_Exclu4_Sub086] (puzzle: Exclusion 4),–,–,257 nM,–
"CCUCUACAUGAGGAUCACCCAUGUGAGGAUAUAGACCGGCCUAACGCGGGCUCGGGAGCUAGAAGGCACAUAGA [EX1 C.7] (Eterna round: R97, puzzle: Exclusion 1)",70.8 nM,21.8 nM,–,–
AAGAAACGAGGAUAUACAAUUAAGUGAGAGAGGGAAAUGUGACAUGAGGAUCACCCAUGUAGAAGGCGUAAGAG [JR_Exclu2_Sub084] (puzzle: Exclusion 2),–,–,44.2 nM,apparent KD of MS2 coat protein [3]: 66.2 nM; apparent KD of MS2 coat protein [4]: 53.5 nM
"AAGUAACAUGAGGAUCACCCAUGUUAGGAUAUCUCGGCCACAGGAACGCUGUAAAGCCAGAGAAGGAGCGGGUG [Mabi] (Eterna round: R97, puzzle: Exclusion 1)",156 nM,127 nM,–,–
"GGUCCUGAUGAUUUCCUAUACAUGAGGAUCACCCAUGUAUGUGUAUUUUGUUUUUCGCUUUUUGGUCGUCAAUAAUA [Mod-Hoo-honey-2] (Eterna round: R97, puzzle: Sensor, turn-off variant 1)",32.6 nM,33.4 nM,–,–
"ACAUGAGGAUCACCCAUGUUAUGUUGGGUACUAAAUUAUUCGUAGGAUAUCGAAGCUAGUUUGUGCGAGAAGGACGCAUUUUUU [JR_ExcNG3_Sub058] (Eterna round: R96, puzzle: Exclusion NG 3)",147 nM,201 nM,–,apparent KD of MS2 coat protein [2]: 176 nM
"UAGUGGGUACGAAGGAGUUGUAUGAGCGGAGGCUCAGUGACAUGAGGAUCACCCAUGUAGCUUUUUGCUCGUCUUAA [JR_SV3TOV2_Sub038] (puzzle: Sensor v3, turn-off variant 2)",–,–,109 nM,apparent KD of MS2 coat protein [3]: 35.7 nM; apparent KD of MS2 coat protein [4]: 32.4 nM
GUUAAACAUGAGGAUCACCCAUGUAAGGAUAUGCUGCGGUCGCGCUGACGUGACUGCAGCAGAAGGUACAAAUG [Mat - Mod of JL D57] (puzzle: Exclusion 1),–,–,76.4 nM,–
"AUAAAACAUGAGGAUCACCCAUGUCAGGAUAUACGACUCCAACCAAACUGCUUGGACCGUAGAAGGGACAAGGG [Exclusion 1 (MOD2 Esqu)] (Eterna round: R97, puzzle: Exclusion 1)",140 nM,277 nM,–,–
AAGAAACGAGGAUAUACAAUUGAGUGAGAGAGGGAAGUGUGACAUGAGGAUCACCCAUGUAGAAGGCGUAAGAG [JR_Exclu2_Sub085] (puzzle: Exclusion 2),–,–,79.5 nM,apparent KD of MS2 coat protein [3]: 124 nM; apparent KD of MS2 coat protein [4]: 73.9 nM
"GUAAAUCAUGUAGGAUAUGCAUAGCAAAGCUAUGCAGAAGGACAUGAGGAUCACCCAUGUCAUUCCGUCUGGAGACAGACGGGA [Mat - Exclusion NG 1 - Mod of JL - D58] (Eterna round: R96, puzzle: Exclusion NG 1)",270 nM,36.7 nM,–,apparent KD of MS2 coat protein [2]: 22.5 nM
"AGCGCAUGAGGAUAUACAUGAGGAUCACCCAUGUUCCAGUGAGCACUAGUGAGAGUCAGUAGAAGGUAUAGGGC [Cecete] (Eterna round: R97, puzzle: Exclusion 3)",151 nM,172 nM,–,–
GUCAUGUAAGGAUAUCUUACAUGUGACUUCGGUCACUGUCAAGAGAAGGUACAUGAGGAUCACCCAUGUUCGAC [Ex4-3: 52] (puzzle: Exclusion 4),–,–,16.2 nM,–
"UGCUACAUGAGGAUCACCCAUGUAAUGUGGGAAUCGUUAGGACAGGAUAUGAUUGUAUUGUUUUUUCAGAAGGGUCAUUACUUU [JR_ExcNG3_Sub012] (Eterna round: R96, puzzle: Exclusion NG 3)",–,–,–,apparent KD of MS2 coat protein [2]: 212 nM
